{"source": "paper PMC2779421", "key": {"[1]": {"target": "β-Amyloid peptide Aβ-(1–40)", "assay": "filtration"}, "[2]": {"target": "β-Amyloid peptide Aβ-(1–40)", "assay": "continuous-wave EPR"}}, "note": "Where “and” joins values, the source holds several entries; their conditions need not be identical. Identical values can stand only once."}
{"substance": "Spin-labeled Cys-(Aβ) (40 residue Aβ peptide variant containing an N-terminal cysteine, labeled with MTSL)", "values": [{"measurement": "% of the slow component (larger aggregates) in the total spectrum, retentate", "setting": "[1]", "result": 34, "unit": "%"}, {"measurement": "% of the slow component (larger aggregates) in the total spectrum, 5–6 h", "setting": "[2]", "result": 34, "unit": "%"}, {"measurement": "stoichiometry N", "setting": "[2]", "result": "8 molecules and 15 molecules"}]}
